Reference: doi:10.1101/2025.09.09.675085 (bioRxiv, 2025)
Like-named read-outs stand apart in the source and are kept apart here.

Legend:
crystal structure [1] = target: the molecule itself; test: crystal structure
crystal structure [2] = target: the molecule itself; test: crystal structure; remark: listed apart in the source

Protein	stoichiometry N (crystal structure [1])	stoichiometry N (crystal structure [2])
Selenomethionine-labelled tagless TipA (residues 26-572) (natural protein, Bdellovibrio bacteriovorus HD100, UniProt Q6MK73 26-572, looked up, selenomethionine-labelled) ITDANPQIANKHLMPNAVRVQITQRGMKYFDNRLSDILGNLGVKLDEGYFPAMSYTAEKPINMDDFMDANPEMVKMYQQVRGLLTQWLVGFSMNDHQPTIEIGESGYVAKFSRFGLVTDELLMEALGKRDGAILAIELEVKKLTISTQSVVAWDTQNEFLGKAGFEDVTLQAADEEMPLKIRLPFYLRMNAMGGLEFEALEISNNFDSIPLGLKYGRLIVPQFAVEVNGKKFYVNNAELEKLFQAQAPMILEKVRGSIGDFARTQLPAMLNQKAKEFLGGSLEQVQDMAAPGQEPTDTRPAFKWGLQLQNLNLKKSLNVDLTTYVEDPVNSRSAPVKSHASRGAPTFNAVAQENYDIGLSVDRALINRVLQLAFERRNFEQIKQSDGSVLKLVATPLIDYVKTPAGVAVKPTETFVKLRVSVEIQPGSMFLKKTIVVDFDIIAKLRQLSDKTGMQMLLHSIDTDSLYLDDKYISVAGKLFKGKVREGVKDELKKRSANWATTEESLPGGLPLPPQILGIKLDINRVMMDPNGHLIMYLDYAKTGANK	2	–
TipA-His (TULIP invasion protein A, Bd2538, residues 26-572 with C-terminal octa-His tag) (natural protein, Bdellovibrio bacteriovorus HD100, UniProt Q6MK73 26-572, looked up) ITDANPQIANKHLMPNAVRVQITQRGMKYFDNRLSDILGNLGVKLDEGYFPAMSYTAEKPINMDDFMDANPEMVKMYQQVRGLLTQWLVGFSMNDHQPTIEIGESGYVAKFSRFGLVTDELLMEALGKRDGAILAIELEVKKLTISTQSVVAWDTQNEFLGKAGFEDVTLQAADEEMPLKIRLPFYLRMNAMGGLEFEALEISNNFDSIPLGLKYGRLIVPQFAVEVNGKKFYVNNAELEKLFQAQAPMILEKVRGSIGDFARTQLPAMLNQKAKEFLGGSLEQVQDMAAPGQEPTDTRPAFKWGLQLQNLNLKKSLNVDLTTYVEDPVNSRSAPVKSHASRGAPTFNAVAQENYDIGLSVDRALINRVLQLAFERRNFEQIKQSDGSVLKLVATPLIDYVKTPAGVAVKPTETFVKLRVSVEIQPGSMFLKKTIVVDFDIIAKLRQLSDKTGMQMLLHSIDTDSLYLDDKYISVAGKLFKGKVREGVKDELKKRSANWATTEESLPGGLPLPPQILGIKLDINRVMMDPNGHLIMYLDYAKTGANK	–	2
